± gives the half width of the 95% confidence interval.
Experiments:
[1] = folding stability dG unfold from trypsin proteolysis; higher = more stable
Summary of the method: (§1)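 Bayesian fitting of sequencing counts gave K50 for each design. Unfolding free energy followed by setting this against a sequence-predicted unfolded-state K50 and a shared folded-state K50, either per protease or with trypsin and chymotrypsin combined. The designs, under 80 residues and lacking cysteine, were digested in a PA-tagged cDNA display format at 11 threefold-diluted protease concentrations and without protease, and only those with AlphaFold2 dimer inter-PAE above 15 were kept.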

[2] = folding stability dG unfold from chymotrypsin proteolysis; higher = more stable
Summary of the method: as §1

[3] = folding stability dG unfold (combined trypsin and chymotrypsin); higher = more stable
Summary of the method: as §1

| Sequence | folding stability dG unfold [1] | folding stability dG unfold [2] | folding stability dG unfold [3] |
| --- | --- | --- | --- |
| SAGMTITTTTPAEAAALAEELAKKNPVLNVTITVVDPETGTVTTIPFAVPAPLPRPYFDPETGEVTLEGSAG [r5_870_TrMRF] | 1.1 ± 0.033 kcal/mol | 0.193 ± 0.18 kcal/mol | 0.779 ± 0.11 kcal/mol |
| SAGMKKKKIKKVEIEIKKGEKTIRVKLENGEEIEYKFKEEDLEEALKKIAEKLGLKKGDKIKIVEIEIESAG [r5_923_TrROS_Hall] | 1.16 ± 0.12 kcal/mol | 0.907 ± 0.13 kcal/mol | 1.29 ± 0.33 kcal/mol |
| SAGGGANIEGVEIYRIPDLDKYLVVVPSPAPEGAEITITVRLPNGPFTKTFVAKYRPLPGNRHVFVGSAGGS [r8_195_TrMRF] | 1.23 ± 0.056 kcal/mol | 0.789 ± 0.15 kcal/mol | 1.03 ± 0.12 kcal/mol |
| SAGGSAGGSAGPFEGYRDKKGKYYLETPDGTKELDSEEELEEEKKRLLEEGIPINVKPSASAGGSAGGSAGG [r17_35_JUSTAS] | -0.308 ± 0.11 kcal/mol | 0.71 ± 0.14 kcal/mol | 0.458 ± 0.26 kcal/mol |
| SAGGKMVKIKIVVEVKVEEEVKEGEKVETFKVELTIELPEEEVEKLKAELEKLFPDVKIVEIEKVEPSAGGS [r8_490_TrROS_Hall] | 3.39 ± 0.24 kcal/mol | 3.86 ± 0.47 kcal/mol | 3.7 ± 0.34 kcal/mol |
| SAGWIIRITLPDNGRTIEIDFENGYIIKITSPDEGKPRVIPIPPDDIREWIKELFPGPVRIVEIYPLPKSAG [r5_519_TrROS] | 2.21 ± 0.042 kcal/mol | 3.09 ± 0.05 kcal/mol | 2.69 ± 0.083 kcal/mol |
| SAGGSAGGSAGGMLVRIPRGDKGFVLEIETDGVRTVEEFDGTEEEIREYAEKNGFEILESAGGSAGGSAGGS [r10_506_JUSTAS] | 0.771 ± 0.017 kcal/mol | 0.883 ± 0.051 kcal/mol | 0.892 ± 0.071 kcal/mol |
| SAGGIEDIANEFGIEDVEIEEINPEYNEVTVTFRFRGPNGNPFTWTYTIEVPPPPPPEPKMDPEDNNNSAGG [r13_608_TrROS] | 1.06 ± 0.12 kcal/mol | 2.44 ± 0.16 kcal/mol | 1.81 ± 0.32 kcal/mol |
| SAGGSAGGDKAVIVDFNPIEPEAVIYFPKTGKAIKFKFDSLEELRDSIEPSGIPVEIVITPPELSAGGSAGG [r6_27_TrMRF] | -0.138 ± 0.19 kcal/mol | 0.196 ± 0.25 kcal/mol | 0.141 ± 0.19 kcal/mol |
| SAGGSAGGSAGEIENPSLLSQIVPRKVKVTTEIRKLPNGSYETVTTVTYGSTTTTTTSSGATSAGGSAGGSA [r18_335_JUSTAS] | 0.163 ± 0.048 kcal/mol | -0.256 ± 0.15 kcal/mol | 0.0269 ± 0.096 kcal/mol |
| SAGGNKATLTVSEDNYPVLLLELYAPDGELIATAPVLLDPEKGGLTAADLERLLKEIDVPPDVEVNIASAGG [r13_479_TrMRF] | 1.21 ± 0.096 kcal/mol | 1.36 ± 0.037 kcal/mol | 1.32 ± 0.091 kcal/mol |
| SAGGSAGGSAMKVGEEVEVTVRIKVDGKEYEVKAKATLDEDGNVTLEVEIKAKEGKVEIEIESAGGSAGGSA [r18_428_TrROS_Hall] | 3.42 ± 0.26 kcal/mol | 2.15 ± 0.14 kcal/mol | 2.63 ± 0.13 kcal/mol |
| SAGGSAMTITIKIENEDVTIPSSKSKEEILKAIKENPDVPVTVTLPDGTPVTLSPEELEKLIKEEKSAGGSA [r15_36_JUSTAS] | 1.02 ± 0.032 kcal/mol | 1.23 ± 0.022 kcal/mol | 1.11 ± 0.11 kcal/mol |
| SAGGSAGGSAGNKPVTVRFTIKIPLPNGKKLEIPVEVTYDSPEDRDRAEKEAEEIAREFLSAGGSAGGSAGG [r17_510_TrROS] | 1.5 ± 0.057 kcal/mol | 1.11 ± 0.098 kcal/mol | 1.36 ± 0.097 kcal/mol |
| SAGGSAGGSAGSVTVSSTTTTLTDSMRVITETFTSPDLVKVTFVPTSNPEDVTVTTLPSASAGGSAGGSAGG [r11_1046_JUSTAS] | -0.417 ± 0.093 kcal/mol | 1.04 ± 0.026 kcal/mol | 0.643 ± 0.092 kcal/mol |
| SAGGSAGGSMTTTVERSPSGKTTVTETETRKDAAGNEYTLVTTTTFDPNTTTSTTTTTVVPVSSAGGSAGGS [r12_57_JUSTAS] | 1.07 ± 0.062 kcal/mol | 1.64 ± 0.048 kcal/mol | 1.51 ± 0.086 kcal/mol |
| SAGGSAAVTITSVPPDGTIRATATNPTNGETVTITFSPETSPEEAVAAIQKELGGPVPVTAVTPAGSAGGSA [r15_544_JUSTAS] | 0.975 ± 0.033 kcal/mol | 1.57 ± 0.062 kcal/mol | 1.42 ± 0.1 kcal/mol |
| SAGGSAGGSMPTLRVKIEVTNPDGEKLELTITVPRDMTLEELKALAEELAKAGYEVRIVEVEPSAGGSAGGS [r12_804_TrROS_Hall] | 3.61 ± 0.15 kcal/mol | 2.83 ± 0.069 kcal/mol | 3.19 ± 0.17 kcal/mol |
| SAGGPLTLEDLKNMPPGEKLEFTFGGYTYEVEIYKNDNGPPYITVKQRDPHDGEPVEEKRVPADDIVSAGGS [r16_763_TrROS] | 0.956 ± 0.032 kcal/mol | 1.92 ± 0.026 kcal/mol | 1.58 ± 0.058 kcal/mol |
| SAGGLNIKFEILEVYPSPNGMRMIIVRMTIEYPVPVYRRDPNGEWRPMPPGQEPVTIEIDFYIMVTPSAGGS [r16_693_TrROS] | 3.67 ± 0.11 kcal/mol | 5.11 ± 0.13 kcal/mol | 4.76 ± 0.18 kcal/mol |
| SAGGSMRLVKITVTTLEPSAEAIAAGAPTPVTLIEREVSSEEEVEEFIKSLPPNVEVSVERLPPPASAGGSA [r2_25_JUSTAS] | 1.66 ± 0.11 kcal/mol | 2.16 ± 0.03 kcal/mol | 2.04 ± 0.12 kcal/mol |

| Sequence | folding stability dG unfold [1] | folding stability dG unfold [2] | folding stability dG unfold [3] |
| --- | --- | --- | --- |
| SAGGSAGGSEKVEIEREFKLPDPNGKPFRFTVEIEVEPRNDGLKIEITEVEGPWMRDAIKKLLSAGGSAGGS [r12_743_TrROS] | 0.696 ± 0.14 kcal/mol | 0.922 ± 0.24 kcal/mol | 0.907 ± 0.2 kcal/mol |
| SAGGSAGGSAGKKVLVLSEDEIAELLGLSKEEIENMSEEEKEKLALELAKKLGIDEVIITSAGGSAGGSAGG [r11_80_TrROS_Hall] | 3.76 ± 0.11 kcal/mol | 3.31 ± 0.094 kcal/mol | 3.54 ± 0.055 kcal/mol |
| SAGGSAGGSAGGSKNKKIKLGPEVKIKVKIEAKLEGGYSSENGLPEFKLDVKLEIGEVESAGGSAGGSAGGS [r10_877_TrMRF] | 0.727 ± 0.068 kcal/mol | 1.09 ± 0.13 kcal/mol | 0.94 ± 0.26 kcal/mol |
| SKPNLEVKEVEIKMTAEEIKKLLKPNVTKIEKVNGKYYVTVKVNGVLVKIEIKYDKETNEVTVKIYVIKPSA [r9_604_TrROS_Hall] | 2.37 ± 0.072 kcal/mol | 3.115 ± 0.03 kcal/mol | 2.88 ± 0.11 kcal/mol |
| SAGGIWIPVPNADWAVDFIIEFIDQFGPGAKIDKITVYNGGKEREITPGEPPKIPPGSWFEIDLEPKSAGGS [r16_267_TrROS] | 0.698 ± 0.037 kcal/mol | 1.15 ± 0.085 kcal/mol | 0.984 ± 0.075 kcal/mol |
| SAGGDLIERVAKELMEKFPMKPGEPRPITIEIPYPDGYRIKVDIPVRVNPDNGEFRFKFDIKEIEPWSAGGS [r16_634_TrROS] | 1.02 ± 0.052 kcal/mol | 1.43 ± 0.16 kcal/mol | 1.25 ± 0.13 kcal/mol |
| SAGGSAGGPEIDLKEVRVFYPPGGERLVLVEVRDDVPLEQVRDWVLERGGEFYRELPNQILVRGSAGGSAGG [r6_543_TrMRF] | 0.0648 ± 0.21 kcal/mol | -0.179 ± 0.34 kcal/mol | -0.00273 ± 0.18 kcal/mol |
| SNELAKEIADELKKQGYEVKDVEVQYSPDDGMVEIEARIRHPDDGRQYRIDIHVNPDDGKITQVKIEPRPSA [r9_814_TrROS] | 0.857 ± 0.028 kcal/mol | 0.644 ± 0.17 kcal/mol | 0.825 ± 0.17 kcal/mol |
| SAGGSAGGSAGIWIPIKDPKEAVDYIQEWFHKKGGYDINIEPTEVYPDGWVRVEINIEPKSAGGSAGGSAGG [r17_430_TrROS] | 0.151 ± 0.1 kcal/mol | 1.26 ± 0.18 kcal/mol | 1.06 ± 0.26 kcal/mol |
| SAGGSAGGSAAPVPPDRTLTVYRDPNTDKYTIRTPDGSVTVSPITPEELRAAGAPVVYLGPESAGGSAGGSA [r18_125_JUSTAS] | -1 ± 0.25 kcal/mol | -0.0867 ± 0.12 kcal/mol | -0.297 ± 0.073 kcal/mol |
| SEKVKKELNEAGYPVKDIKFVPEKGYAYITVEVYVPEVDKKVEKEIVIPFPDSATPEQLTEAARKALEADSA [r9_184_TrMRF] | 3.04 ± 0.11 kcal/mol | 3.04 ± 0.076 kcal/mol | 3.09 ± 0.092 kcal/mol |
| SAGGRKITINWNPNSGEIKVKIIWPDGEKEELPIPVPEGHDSPRQFADELKDNAQERFGEPVKIEITSAGGS [r8_166_TrROS] | -0.223 ± 0.15 kcal/mol | -0.793 ± 0.21 kcal/mol | -0.492 ± 0.4 kcal/mol |
| SAMKVTITVTKHTLPDGTPYYTVTITDPSTGKTFSGPVSSEEEAKATAQALADKIEAEGTPVTITFTDDSAG [r14_263_JUSTAS] | 3.97 ± 0.23 kcal/mol | 4.03 ± 0.086 kcal/mol | 3.99 ± 0.14 kcal/mol |
| SAGGSAGGSAGMPLTVLGTEEIGDSTTVTTKDPTSDELYRKTYTNGAVSSTEIVPASELGSAGGSAGGSAGG [r11_19_JUSTAS] | 0.0214 ± 0.053 kcal/mol | 0.282 ± 0.07 kcal/mol | 0.217 ± 0.072 kcal/mol |
| SAETVTFRVGDVEIVARRLPDGYVVVTEKVPEEYPEAELVLSLVRVYPDGTVEVESRLYRIDPETGVIGSAG [r14_724_TrMRF] | 2.12 ± 0.049 kcal/mol | 2.67 ± 0.053 kcal/mol | 2.48 ± 0.17 kcal/mol |
| SAGGKEKVKIKIKIIDKKTNKVYEAEATFDKETGKVTITFPDGSKITFDLKTNKLYIEKDGKIIEIESAGGS [r16_743_TrROS_Hall] | 2.66 ± 0.27 kcal/mol | 3.53 ± 0.091 kcal/mol | 3.19 ± 0.28 kcal/mol |
| SMIKIKLKNGMEITIEKTPEKVKIKLKATGKEIELPLEELENMTEEELLEKLRKLAEELGMEVEEVEIEPSA [r9_1211_TrROS_Hall] | 3.18 ± 0.14 kcal/mol | 3.43 ± 0.083 kcal/mol | 3.38 ± 0.11 kcal/mol |
| SAGGSKGKAPVKVRFLFLEDGKVVAEAEVEFEVEVPIPPVPPVFVPEEARKALENGDIEKALKLLGSAGGSA [r2_196_TrMRF] | 0.827 ± 0.036 kcal/mol | 1.58 ± 0.035 kcal/mol | 1.36 ± 0.13 kcal/mol |
| SAGGSAGGSKEKKYLVIELKLKVPPGMSPEELAKLLESLPGLKVVEIVEVDEESGTVKIVVELSAGGSAGGS [r12_712_TrROS_Hall] | 2.02 ± 0.046 kcal/mol | 3.54 ± 0.096 kcal/mol | 3.07 ± 0.16 kcal/mol |
| GEFVSVESVERLPDGTLVVKIKYKPPSPDTPVTVTVSHPDSSVTFTMDPTSSTITVTVPPSVSDVSVTVVGS [r1_428_JUSTAS] | 2.6 ± 0.1 kcal/mol | 3.58 ± 0.12 kcal/mol | 3.29 ± 0.093 kcal/mol |
| SAGGSAGGSARITVTPEGGYWRVTIKGPGKTRTFQFPMPANEAEEIVEELQNPPIDIDVEPVSAGGSAGGSA [r18_103_TrROS] | -0.328 ± 0.3 kcal/mol | -0.142 ± 0.2 kcal/mol | -0.115 ± 0.14 kcal/mol |

Reference: the supplement of paper PMC12764529
